Biological target: T1, human TIM-3 full length, overexpressed on CHO-S cells (human, UniProt Q8TDQ0 22-301)
T1 construct: cells fixed with 4% PFA on plates; also called HAVCR2; Tim-3-overexpressing CHO-S cells
Experiment: cell-based ELISA on fixed CHO-S cells overexpressing human TIM-3;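 note: antibody binding at serial dilutions to PFA-fixed cells for 1 h at 37 °C, read as TMB colour signal after acid stop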
Procedure: The binding activity of anti-TIM-3 antibody to CHO-S cells overexpressing human TIM-3 is detected via a binding assay. […] TIM-3-overexpressing cells were immobilized on a 96-well plate. After the addition of the antibody, signal strength was used to determine the binding activity of the antibody to Tim-3-overexpressing CHO-S cells.
The cells were inoculated on a 96-well plate with 4E5/ml density, 100 μg/well, and cultured overnight. Supernatant was discarded and the plate was washed three times with PBS. 100 μl/well of 4% PFA was added into each well, and the plate was fixed at room temperature for 30 minutes. The plate was washed three times with PBS. The liquid was discarded, and 200 μl of blocking solution (5% skim milk (Guangming skim milk powder) diluted with PBS) was added to each well. The plate was incubated at 37° C. for 2.5 h. Then the blocking solution was discarded, and the plate was washed 5 times with PBST buffer (pH 7.4 PBS containing 0.05% Tween-20). 50 μl/well of various concentrations of antibodies to be tested (antibody via hybridoma purification or humanized antibody), diluted with sample buffer, were added into each well, and incubated at 37° C. for 1 h. […] The plate was washed 6 times with PBST, and 100 μl/well TMB chromogenic substrates (KPL, Cat, No., 52-00-03) was added to each well. The plate was incubated at room temperature for 5-15 min. Reaction was stopped by the addition of 50 μl of 1 M H₂SO₄ to each well.

Row | Binder | EC50 [nM]
1 | h1701-005 (antibody, human IgG4 S228P, kappa, V domains shown, Humanized IgG4 (S228P)/kappa) VH: QVQLVQSGAEVKKPGASVKVSCKASGYTFTDYYMNWVRQAPGQGLEWMGDIIPNNGGSKYNQKFKDRVTMTTDTSTSTAYMELRSLRSDDTAVYYCARWGYGSSYRWFDYWGQGTLVTVSS VL: DIQMTQSPSSLSASVGDRVTITCLASQPIGIWLAWYQQKPGKAPKLLIYAATSLADGVPSRFSGSGSGTDFTFTISSLQPEDIATYYCQQLYSSPWTFGGGTKVEIKR | 0.602
2 | h1701-008 (antibody, human IgG4 S228P, kappa, V domains shown, Humanized IgG4 (S228P)/kappa) VH: QVQLVQSGAEVKKPGASVKVSCKASGYTFTDYYMNWVRQAPGQGLEWIGDIIPNNGGSKYNQKFKDRVTMTTDTSTSTAYMELRSLRSDDTAVYYCARWGYGSSYRWFDYWGQGTLVTVSS VL: DIQMTQSPSSLSASVGDRVTITCLASQPIGIWLAWYQQKPGKSPKLLIYAATSLADGVPSRFSGSGSGTDFTFTISSLQPEDIATYYCQQLYSSPWTFGGGTKVEIKR | 2.42
3 | h1701-013 (antibody, human IgG4 S228P, kappa, V domains shown, Humanized IgG4 (S228P)/kappa) VH: QVQLVQSGAEVKKPGASVKVSCKASGYTFTDYYMNWVKQAPGQGLEWIGDIIPNNGGSKYNQKFKDRVTMTTDTSTSTAYMELRSLRSEDTAVYYCATWGYGSSYRWFDYWGQGTLVTVSS VL: DIQMTQSPSSLSASVGDRVTITCLASQPIGIWLAWYQQKPGKAPKLLIYAATSLADGVPSRFSGSGSGTDFTFTISSLQPEDIATYYCQQLYSSPWTFGGGTKVEIKR | 0.199
4 | h1701-012 (antibody, human IgG4 S228P, kappa, V domains shown, Humanized IgG4 (S228P)/kappa) VH: QVQLVQSGAEVKKPGASVKVSCKASGYTFTDYYMNWVRQAPGQGLEWIGDIIPNNGGSKYNQKFKDRVTMTTDTSTSTAYMELRSLRSDDTAVYYCATWGYGSSYRWFDYWGQGTLVTVSS VL: DIQMTQSPSSLSASVGDRVTITCLASQPIGIWLAWYQQKPGKSPKLLIYAATSLADGVPSRFSGSGSGTDFTFTISSLQPEDIATYYCQQLYSSPWTFGGGTKVEIKR | 0.221
5 | h1701-006 (antibody, human IgG4 S228P, kappa, V domains shown, Humanized IgG4 (S228P)/kappa) VH: QVQLVQSGAEVKKPGASVKVSCKASGYTFTDYYMNWVRQAPGQGLEWMGDIIPNNGGSKYNQKFKDRVTMTTDTSTSTAYMELRSLRSDDTAVYYCARWGYGSSYRWFDYWGQGTLVTVSS VL: DIQMTQSPSSLSASVGDRVTITCLASQPIGIWLAWYQQKPGKSPKLLIYAATSLADGVPSRFSGSGSGTDFTFTISSLQPEDIATYYCQQLYSSPWTFGGGTKVEIKR | 0.735
6 | h1701-015 (antibody, human IgG4 S228P, kappa, V domains shown, Humanized IgG4 (S228P)/kappa) VH: QVQLVQSGAEVKKPGASVKVSCKASGYTFTDYYMNWVRQAPGQGLEWIADIIPNNGGSKYNQKFKDRATLTTDTSTSTAYMELRSLRSDDTAVYYCATWGYGSSYRWFDYWGQGTLVTVSS VL: DIQMTQSPSSLSASVGDRVTITCLASQPIGIWLAWYQQKPGKAPKLLIYAATSLADGVPSRFSGSGSGTDFTFTISSLQPEDIATYYCQQLYSSPWTFGGGTKVEIKR | 0.265
7 | h1701-011 (antibody, human IgG4 S228P, kappa, V domains shown, Humanized IgG4 (S228P)/kappa) VH: QVQLVQSGAEVKKPGASVKVSCKASGYTFTDYYMNWVRQAPGQGLEWIGDIIPNNGGSKYNQKFKDRVTMTTDTSTSTAYMELRSLRSDDTAVYYCATWGYGSSYRWFDYWGQGTLVTVSS VL: DIQMTQSPSSLSASVGDRVTITCLASQPIGIWLAWYQQKPGKAPKLLIYAATSLADGVPSRFSGSGSGTDFTFTISSLQPEDIATYYCQQLYSSPWTFGGGTKVEIKR | 0.188
8 | h1799-012 (antibody, human IgG4 S228P, kappa, Humanized IgG4 (S228P)/kappa) heavy: not shown light: DIQMTQSPSSLSASVGDRVTITCRASDNIYSYLAWYQQKPGKAPQLLVYNAKTLAEGVPSRFSGSGSGTDFTLTISSLQPEDFATYYCQQHYGSPLTFGQGTKLEIKRTVAAPSVFIFPPSDEQLKSGTASVVCLLNNFYPREAKVQWKVDNALQSGNSQESVTEQDSKDSTYSLSSTLTLSKADYEKHKVYACEVTHQGLSSPVTKSFNRGEC | 0.158
9 | h1799-015 (antibody, human IgG4 S228P, kappa, V domains shown, Humanized IgG4 (S228P)/kappa) VH: EVKLVESGGGLVQPGGSLRLSCAASGFTFSDYYMAWVRQAPGKGLEWVANINYDGSSTYYLDSLKSRFTISRDNAKNSLYLQMNSLKAEDTAVYYCARDVGYYGGNYGFAYWGQGTLVTVSS VL: DIQMTQSPSSLSASVGDRVTITCRASDNIYSYLAWYQQKPGKAPKLLIYNAKTLAEGVPSRFSGSGSGTDFTLTISSLQPEDFATYYCQQHYGSPLTFGQGTKLEIKR | 0.188
10 | h1799-013 (antibody, human IgG4 S228P, kappa, Humanized IgG4 (S228P)/kappa) heavy: not shown light: DIQMTQSPSSLSASVGDRVTITCRASDNIYSYLAWYQQKPGKSPQLLVYNAKTLAEGVPSRFSGSGSGTDFTLTISSLQPEDFATYYCQQHYGSPLTFGQGTKLEIKRTVAAPSVFIFPPSDEQLKSGTASVVCLLNNFYPREAKVQWKVDNALQSGNSQESVTEQDSKDSTYSLSSTLTLSKADYEKHKVYACEVTHQGLSSPVTKSFNRGEC | 0.139
11 | h1799-017 (antibody, human IgG4 S228P, kappa, V domains shown, Humanized IgG4 (S228P)/kappa) VH: EVKLVESGGGLVQPGGSLRLSCAASGFTFSDYYMAWVRQAPGKGLEWVANINYDGSSTYYLDSLKSRFTISRDNAKNSLYLQMNSLKAEDTAVYYCARDVGYYGGNYGFAYWGQGTLVTVSS VL: DIQMTQSPSSLSASVGDRVTITCRASDNIYSYLAWYQQKPGKAPQLLVYNAKTLAEGVPSRFSGSGSGTDFTLTISSLQPEDFATYYCQQHYGSPLTFGQGTKLEIKR | 0.194
12 | h1799-018 (antibody, human IgG4 S228P, kappa, V domains shown, Humanized IgG4 (S228P)/kappa) VH: EVKLVESGGGLVQPGGSLRLSCAASGFTFSDYYMAWVRQAPGKGLEWVANINYDGSSTYYLDSLKSRFTISRDNAKNSLYLQMNSLKAEDTAVYYCARDVGYYGGNYGFAYWGQGTLVTVSS VL: DIQMTQSPSSLSASVGDRVTITCRASDNIYSYLAWYQQKPGKSPQLLVYNAKTLAEGVPSRFSGSGSGTDFTLTISSLQPEDFATYYCQQHYGSPLTFGQGTKLEIKR | 0.215

These reach a lower EC50. Values come first.

Row | EC50 [nM] | Binder
13 | 0.124 | h1701-014 (antibody, human IgG4 S228P, kappa, V domains shown, Humanized IgG4 (S228P)/kappa) VH: QVQLVQSGAEVKKPGASVKVSCKASGYTFTDYYMNWVKQAPGQGLEWIGDIIPNNGGSKYNQKFKDRVTMTTDTSTSTAYMELRSLRSEDTAVYYCATWGYGSSYRWFDYWGQGTLVTVSS VL: DIQMTQSPSSLSASVGDRVTITCLASQPIGIWLAWYQQKPGKSPKLLIYAATSLADGVPSRFSGSGSGTDFTFTISSLQPEDIATYYCQQLYSSPWTFGGGTKVEIKR
14 | 0.119 | h1799-019 (antibody, human IgG4 S228P, kappa, V domains shown, Humanized IgG4 (S228P)/kappa) VH: EVKLVESGGGLVQPGGSLRLSCAASGFTFSDYYMAWVRQAPGKGLEWVANINYDGSSTYYLDSLKSRFTISRDNAKNSLYLQMNSLKAEDTAVYYCARDVGYYGGNYGFAYWGQGTLVTVSS VL: DIQMTQSPSSLSASVGDRVTITCRASDNIYSYLAWYQQKPGKSPQLLVYNAKTLAEGVPSRFSGSGSGTDFTLTISSLQPEDFASYYCQQHYGSPLTFGQGTKLEIKR
15 | 0.117 | h1799-016 (antibody, human IgG4 S228P, kappa, V domains shown, Humanized IgG4 (S228P)/kappa) VH: EVKLVESGGGLVQPGGSLRLSCAASGFTFSDYYMAWVRQAPGKGLEWVANINYDGSSTYYLDSLKSRFTISRDNAKNSLYLQMNSLKAEDTAVYYCARDVGYYGGNYGFAYWGQGTLVTVSS VL: DIQMTQSPSSLSASVGDRVTITCRASDNIYSYLAWYQQKPGKAPKLLVYNAKTLAEGVPSRFSGSGSGTDFTLTISSLQPEDFATYYCQQHYGSPLTFGQGTKLEIKR
16 | 0.116 | h1799-014 (antibody, human IgG4 S228P, kappa, Humanized IgG4 (S228P)/kappa) heavy: not shown light: DIQMTQSPSSLSASVGDRVTITCRASDNIYSYLAWYQQKPGKSPQLLVYNAKTLAEGVPSRFSGSGSGTDFTLTISSLQPEDFASYYCQQHYGSPLTFGQGTKLEIKRTVAAPSVFIFPPSDEQLKSGTASVVCLLNNFYPREAKVQWKVDNALQSGNSQESVTEQDSKDSTYSLSSTLTLSKADYEKHKVYACEVTHQGLSSPVTKSFNRGEC
17 | 0.114 | h1799-011 (antibody, human IgG4 S228P, kappa, Humanized IgG4 (S228P)/kappa) heavy: not shown light: DIQMTQSPSSLSASVGDRVTITCRASDNIYSYLAWYQQKPGKAPKLLVYNAKTLAEGVPSRFSGSGSGTDFTLTISSLQPEDFATYYCQQHYGSPLTFGQGTKLEIKRTVAAPSVFIFPPSDEQLKSGTASVVCLLNNFYPREAKVQWKVDNALQSGNSQESVTEQDSKDSTYSLSSTLTLSKADYEKHKVYACEVTHQGLSSPVTKSFNRGEC
18 | 0.109 | h1799-007 (antibody, human IgG4 S228P, kappa, Humanized IgG4 (S228P)/kappa) heavy: not shown light: DIQMTQSPSSLSASVGDRVTITCRASDNIYSYLAWYQQKPGKAPQLLVYNAKTLAEGVPSRFSGSGSGTDFTLTISSLQPEDFATYYCQQHYGSPLTFGQGTKLEIKRTVAAPSVFIFPPSDEQLKSGTASVVCLLNNFYPREAKVQWKVDNALQSGNSQESVTEQDSKDSTYSLSSTLTLSKADYEKHKVYACEVTHQGLSSPVTKSFNRGEC
19 | 0.105 | h1701-017 (antibody, human IgG4 S228P, kappa, V domains shown, Humanized IgG4 (S228P)/kappa) VH: QVQLVQSGAEVKKPGASVKVSCKASGYTFTDYYMNWVKQAPGQGLEWIADIIPNNGGSKYNQKFKDRATLTTDTSTSTAYMELRSLRSEDTAVYYCATWGYGSSYRWFDYWGQGTLVTVSS VL: DIQMTQSPSSLSASVGDRVTITCLASQPIGIWLAWYQQKPGKAPKLLIYAATSLADGVPSRFSGSGSGTDFTFTISSLQPEDIATYYCQQLYSSPWTFGGGTKVEIKR
20 | 0.087 | h1701-018 (antibody, human IgG4 S228P, kappa, V domains shown, Humanized IgG4 (S228P)/kappa) VH: QVQLVQSGAEVKKPGASVKVSCKASGYTFTDYYMNWVKQAPGQGLEWIADIIPNNGGSKYNQKFKDRATLTTDTSTSTAYMELRSLRSEDTAVYYCATWGYGSSYRWFDYWGQGTLVTVSS VL: DIQMTQSPSSLSASVGDRVTITCLASQPIGIWLAWYQQKPGKSPKLLIYAATSLADGVPSRFSGSGSGTDFTFTISSLQPEDIATYYCQQLYSSPWTFGGGTKVEIKR
21 | 0.076 | h1799-009 (antibody, human IgG4 S228P, kappa, Humanized IgG4 (S228P)/kappa) heavy: not shown light: DIQMTQSPSSLSASVGDRVTITCRASDNIYSYLAWYQQKPGKSPQLLVYNAKTLAEGVPSRFSGSGSGTDFTLTISSLQPEDFASYYCQQHYGSPLTFGQGTKLEIKRTVAAPSVFIFPPSDEQLKSGTASVVCLLNNFYPREAKVQWKVDNALQSGNSQESVTEQDSKDSTYSLSSTLTLSKADYEKHKVYACEVTHQGLSSPVTKSFNRGEC
22 | 0.067 | h1799-008 (antibody, human IgG4 S228P, kappa, Humanized IgG4 (S228P)/kappa) heavy: not shown light: DIQMTQSPSSLSASVGDRVTITCRASDNIYSYLAWYQQKPGKSPQLLVYNAKTLAEGVPSRFSGSGSGTDFTLTISSLQPEDFATYYCQQHYGSPLTFGQGTKLEIKRTVAAPSVFIFPPSDEQLKSGTASVVCLLNNFYPREAKVQWKVDNALQSGNSQESVTEQDSKDSTYSLSSTLTLSKADYEKHKVYACEVTHQGLSSPVTKSFNRGEC
